Data on two molecules can be found in publication PMC1277818, “Substrate specificity analysis of protein kinase complex Dbf2-Mob1 by peptide library and proteome array screening” (BMC Biochemistry, 2005).

Assay [1] has as its target T1, FHHDbf2-H6Mob1TM9 (Saccharomyces cerevisiae, UniProt P22204+P40484).
T1 construct: made in house; host or cells: Hi5 insect cells (baculovirus)
T1 sequence (P22204 1-572): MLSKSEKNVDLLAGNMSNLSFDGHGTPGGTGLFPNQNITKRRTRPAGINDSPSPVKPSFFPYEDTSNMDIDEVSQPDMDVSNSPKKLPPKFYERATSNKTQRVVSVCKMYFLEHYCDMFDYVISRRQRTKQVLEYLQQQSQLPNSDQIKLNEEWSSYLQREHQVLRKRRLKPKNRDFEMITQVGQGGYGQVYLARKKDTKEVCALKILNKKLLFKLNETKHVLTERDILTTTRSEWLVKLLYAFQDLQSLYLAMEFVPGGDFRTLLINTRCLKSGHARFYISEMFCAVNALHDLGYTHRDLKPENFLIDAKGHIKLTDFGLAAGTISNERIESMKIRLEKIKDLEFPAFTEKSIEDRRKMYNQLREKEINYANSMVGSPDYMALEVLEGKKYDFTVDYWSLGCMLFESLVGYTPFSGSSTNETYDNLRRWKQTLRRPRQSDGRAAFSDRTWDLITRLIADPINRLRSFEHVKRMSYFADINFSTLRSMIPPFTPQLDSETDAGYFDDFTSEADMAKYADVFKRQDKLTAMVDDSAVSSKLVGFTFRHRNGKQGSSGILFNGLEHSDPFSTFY
T1 sequence (P40484 1-314 partner): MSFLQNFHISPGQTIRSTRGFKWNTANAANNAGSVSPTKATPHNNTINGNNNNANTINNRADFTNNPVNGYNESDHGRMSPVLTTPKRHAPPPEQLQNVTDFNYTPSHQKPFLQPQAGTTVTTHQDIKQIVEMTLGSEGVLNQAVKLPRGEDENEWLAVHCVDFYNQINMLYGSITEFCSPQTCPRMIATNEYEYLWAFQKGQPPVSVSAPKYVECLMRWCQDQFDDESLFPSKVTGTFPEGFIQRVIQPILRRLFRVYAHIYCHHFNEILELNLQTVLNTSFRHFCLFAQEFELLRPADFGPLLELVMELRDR
Nature of the assay: Kinase assays of immunoprecipitated TAP-tagged proteins. The format is biochemical. To be noted: protein on IgG sepharose beads, ~13 ng Dbf2, 2 μCi [γ-32P]ATP, 30 min, room temperature, SDS-PAGE, autoradiography. On the procedure:
TAP-tagged strains were obtained for 22 of the 25 top candidates. TAP-tagged alleles for three of the genes (YJL108C, YBR285W, and YBR108W) were not available, and therefore these candidates were not subjected to further analysis. Asynchronous cultures of the 22 TAP-tagged strains were grown and the TAP-tagged proteins immunoprecipitated with IgG sepharose and analyzed by Western blotting (Figure 2A). Candidates were determined to be phosphorylated if a radioactive signal was detected at the molecular weight predicted for the tagged protein. […] The 17 TAP-tagged proteins that were expressed and purified were used in Dbf2-Mob1 kinase assays (Figure 2B). Of the 17, 10 were determined to be phosphorylated.
The TAP-tagged proteins were immunoprecipitated with IgG sepharose beads from asynchronous cultures, fractionated on SDS-PAGE and immunoblotted with anti-TAP. […] (B) The TAP-tagged proteins expressed in (A) were treated with ^FHHDbf2-^H6Mob1^TM9 in the presence of [γ-^32P]ATP, fractionated on SDS-PAGE and detected by autoradiography.
Yeast strains containing TAP-tagged genes (Open Biosystems) were grown to OD600 ~2.0 in 25 mL of YPD. […] Immunoprecipitated TAP-tagged proteins were analyzed by SDS-PAGE and detected by Western blotting using the primary antibody anti-TAP (Open Biosystems) followed by goat anti-rabbit horseradish peroxidase (HRP)-conjugate (Bio-Rad), and ECL. […]

Assay [2] deals with T1, FHHDbf2-H6Mob1TM9. The assay is described as follows: Yeast proteome chip assay. It counts as biochemical. To be noted: [γ-33P]ATP, chips in duplicate. Summed up: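 GST-tagged yeast proteins (~4,400 strains) spotted on proteome microarrays, probed in duplicate with FHHDbf2-H6Mob1TM9 in DKB plus [γ-33P]ATP; kinase-dead Dbf2(N305A) and kinase-free buffer served as controls. Positives: 3 of 4 spots ≥2 SD above background, fourth ≥1.5 SD.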

Assay [3] has as its system kinase-inactive FHHDbf2(N305A)-H6Mob1TM9. The assay is described as follows: Kinase assays of immunoprecipitated TAP-tagged proteins with the kinase-inactive complex. The format is biochemical, Saccharomyces cerevisiae. To be noted: protein on IgG sepharose beads, ~13 ng Dbf2, 2 μCi [γ-32P]ATP, 30 min, room temperature, SDS-PAGE, autoradiography.
The mark [4] stands for this setting: Table 3, GST fusion proteins on proteome chip, computer analysis.
The mark [5] stands for this setting: Table 4, the 25 proteins with highest signal relative to protein amount.

B1: YDR226W: GST fusion yeast protein on proteome chip (protein, UniProt P07170 3-222, looked up)
Adenylate kinase: SSESIRMVLIGPPGAGKGTQAPNLQERFHAAHLATGDMLRSQIAKGTQLGLEAKKIMDQGGLVSDDIMVNMIKDELTNNPACKNGFILDGFPRTIPQAEKLDQMLKEQGTPLEKAIELKVDDELLVARITGRLIHPASGRSYHKIFNPPKEDMKDDVTGEALVQRSDDNADALKKRLAAYHAQTEPIVDFYKKTGIWAGVDASQPPATVWADILNKLGKD
modifications: GST tag
notes: GST fusion yeast protein on proteome chip
B1: in assay [1], the “Phosphorylation of TAP-tagged protein by Dbf2-Mob1” value is reported as “phosphorylated by Dbf2-Mob1”. The “Slide Signal (after normalization)” value in assay [2] (setting [4]) and in assay [2] (setting [5]) was 3.1016 each time. Also, the “Phosphorylation of TAP-tagged protein by kinase-inactive Dbf2(N305A)-Mob1” value in assay [3] was “not its kinase inactive form”.

B2: YOR362C: GST fusion yeast protein on proteome chip (protein, UniProt P21242 2-288, looked up)
Probable proteasome subunit …: TSIGTGYDLSNSVFSPDGRNFQVEYAVKAVENGTTSIGIKCNDGVVFAVEKLITSKLLVPQKNVKIQVVDRHIGCVYSGLIPDGRHLVNRGREEAASFKKLYKTPIPIPAFADRLGQYVQAHTLYNSVRPFGVSTIFGGVDKNGAHLYMLEPSGSYWGYKGAATGKGRQSAKAELEKLVDHHPEGLSAREAVKQAAKIIYLAHEDNKEKDFELEISWCSLSETNGLHKFVKGDLLQEAIDFAQKEINGDDDEDEDDSDNVMSSDDENAPVATNANATTDQEGDIHLE
modifications: GST tag
notes: as for B1
Take B2: the “Phosphorylation of TAP-tagged protein by Dbf2-Mob1” value in assay [1] is “phosphorylated by Dbf2-Mob1”. In addition, the “Slide Signal (after normalization)” value in assay [2] (setting [4]) and in assay [2] (setting [5]) was 0.9895 throughout. The “Phosphorylation of TAP-tagged protein by kinase-inactive Dbf2(N305A)-Mob1” value in assay [3] is “not its kinase inactive form”.
